Non-standard residues stand in square brackets, D forms with d. No end group written: not given here.
Experiments:
Type in all cases: biochemical
human NEP = target: T1, human NEP (Homo sapiens, UniProt P08473); assay: Screening of opiorphin peptide-derivatives on hNEP (endopeptidase and carboxydipeptidase activities); conditions: for inhibitory potency towards human NEP (in words): screening, 50 μM final concentration, triplicate
T1 construct: devoid of their respective N-terminal cytosol and transmembrane segment; purchased R&D Systems
Procedure: (§1) According to conditions of initial velocity measurement: the time, pH and temperature of incubation as well as enzyme and substrate concentrations were defined for each assay. Hydrolysis of substrates was measured by real-time monitoring their metabolism rate by the two peptidases in the presence and absence of tested inhibitory compound (concentrations ranging from 1 to 50 μM). These were added to the preincubation medium. The background rate of substrate autolysis representing the fluorescent signal obtained in the absence of enzyme was subtracted to calculate the initial velocities in RFU (Relative Fluorescent Unit)/min.
(§2) (2.3 min-interval successive measures) by using a fluorimeter microplate reader (monochromator Infinite 200-Tecan) at 320 nm and 420 nm excitation and emission wavelengths, respectively.
Using black half-area 96 well microplate, the standard reaction consisted of enzyme (2.5 ng) in 100 mM Tris-HCl pH 6.5 containing 50 mM NaCl (100 μl final volume). The substrate (4 μM final concentration) was added after preincubation for 10 min and the kinetics of appearance of the fluorescent signal (RFU) was directly analyzed for 40 min at 28° C. (2.3 min-interval successive measures) by using the fluorimeter reader at 320 nm excitation and 420 nm emission wavelengths.
In addition, the intramolecularly quenched fluorogenic peptide, Mca-BK2 (10 μM), was submitted to hydrolysis by 5 ng rhNEP under the same experimental conditions as those described behind.
(§3) Compounds were tested in triplicate at 50 μM final concentration.

recombinant human AP-N = target: T2, recombinant human AP-N (Homo sapiens, UniProt P15144); assay: AP-N-ectopeptidase activity, Ala-Mca substrate; conditions: for inhibitory preference for human AP-N (in words): screening at 50 μM, AP-N versus NEP; for inhibitory potency towards human AP-N (in words): screening, 50 μM final concentration, triplicate
T2 construct: devoid of their respective N-terminal cytosol and transmembrane segment; purchased R&D Systems
Procedure: (§4) Formal kinetic analysis was performed for each assay using real-time fluorescence monitoring of specific substrate hydrolysis.
(§5) Recombinant human NEP and recombinant human AP-N (devoid of their respective N-terminal cytosol and transmembrane segment) that were purchased from R&D Systems, were used as pure source of peptidase.
FRET is the distance-dependant transfer of energy from a donor fluorophore (Abz=ortho-aminobenzoyl or Mca=7-methoxycoumarin-4-yl-acetyl) to an acceptor fluorophore (DnpOH=2,4-dinitrophenyl or EDDnp=2,4-dinitrophenyl ethylenediamine). • L-alanine-Mca, Ala-Mca, a fluorogenic substrate for measuring aminopeptidase activity was purchased from Sigma.
as §1
Measurement of AP-N-ectopeptidase activity using Ala-Mca substrate. Using black half-area 96 well microplate the standard reaction consisted of enzyme (4 ng) in 100 mM Tris-HCl pH 7.0 (100 μl final volume).
as §3

[1] = target: T3, recombinant human NEP (rhNEP-Endopeptidase activity) (Homo sapiens, UniProt P08473); assay: NEP-endopeptidase activity, FRET substrate Abz-dR-G-L-EDDnp; conditions: screening at 50 μM and IC50 comparison, NEP endopeptidase versus AP-N
T3 construct: devoid of their respective N-terminal cytosol and transmembrane segment; purchased R&D Systems
Procedure: as §4, §5, §1, §2

[2] = target: T4, membrane-bound human NEP expressed by LNCaP epithelial cells (Homo sapiens, UniProt P08473); assay: Substance P cleavage by membrane-bound hNEP of human cell membranes; conditions: increase vs Opiorphin native peptide in the same test
T4 construct: human cell membranes as source of hNEP; endogenous in cells; host or cells: LNCaP epithelial cells (membranes)
T4 sequence (P08473 whole entry): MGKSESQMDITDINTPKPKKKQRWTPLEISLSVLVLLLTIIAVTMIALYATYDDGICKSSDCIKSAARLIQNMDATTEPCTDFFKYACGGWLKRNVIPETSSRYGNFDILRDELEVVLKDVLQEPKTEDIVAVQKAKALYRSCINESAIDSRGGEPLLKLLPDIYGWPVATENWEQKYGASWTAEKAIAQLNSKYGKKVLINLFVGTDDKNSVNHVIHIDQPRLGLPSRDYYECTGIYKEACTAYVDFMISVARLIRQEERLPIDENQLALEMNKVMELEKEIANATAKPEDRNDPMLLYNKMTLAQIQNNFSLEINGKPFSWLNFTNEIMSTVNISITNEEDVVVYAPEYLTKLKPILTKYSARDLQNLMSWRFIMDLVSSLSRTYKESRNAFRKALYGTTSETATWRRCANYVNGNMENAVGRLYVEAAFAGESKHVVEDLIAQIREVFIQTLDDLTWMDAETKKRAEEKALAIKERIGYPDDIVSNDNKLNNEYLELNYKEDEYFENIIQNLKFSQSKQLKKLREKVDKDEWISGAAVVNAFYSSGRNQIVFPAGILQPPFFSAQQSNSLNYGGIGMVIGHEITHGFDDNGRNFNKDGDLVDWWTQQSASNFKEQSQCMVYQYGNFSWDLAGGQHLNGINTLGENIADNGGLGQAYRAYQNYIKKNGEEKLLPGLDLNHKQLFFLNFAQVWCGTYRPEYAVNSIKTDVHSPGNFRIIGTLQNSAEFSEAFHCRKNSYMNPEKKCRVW

T2 sequence (P15144 33-967 limits assumed): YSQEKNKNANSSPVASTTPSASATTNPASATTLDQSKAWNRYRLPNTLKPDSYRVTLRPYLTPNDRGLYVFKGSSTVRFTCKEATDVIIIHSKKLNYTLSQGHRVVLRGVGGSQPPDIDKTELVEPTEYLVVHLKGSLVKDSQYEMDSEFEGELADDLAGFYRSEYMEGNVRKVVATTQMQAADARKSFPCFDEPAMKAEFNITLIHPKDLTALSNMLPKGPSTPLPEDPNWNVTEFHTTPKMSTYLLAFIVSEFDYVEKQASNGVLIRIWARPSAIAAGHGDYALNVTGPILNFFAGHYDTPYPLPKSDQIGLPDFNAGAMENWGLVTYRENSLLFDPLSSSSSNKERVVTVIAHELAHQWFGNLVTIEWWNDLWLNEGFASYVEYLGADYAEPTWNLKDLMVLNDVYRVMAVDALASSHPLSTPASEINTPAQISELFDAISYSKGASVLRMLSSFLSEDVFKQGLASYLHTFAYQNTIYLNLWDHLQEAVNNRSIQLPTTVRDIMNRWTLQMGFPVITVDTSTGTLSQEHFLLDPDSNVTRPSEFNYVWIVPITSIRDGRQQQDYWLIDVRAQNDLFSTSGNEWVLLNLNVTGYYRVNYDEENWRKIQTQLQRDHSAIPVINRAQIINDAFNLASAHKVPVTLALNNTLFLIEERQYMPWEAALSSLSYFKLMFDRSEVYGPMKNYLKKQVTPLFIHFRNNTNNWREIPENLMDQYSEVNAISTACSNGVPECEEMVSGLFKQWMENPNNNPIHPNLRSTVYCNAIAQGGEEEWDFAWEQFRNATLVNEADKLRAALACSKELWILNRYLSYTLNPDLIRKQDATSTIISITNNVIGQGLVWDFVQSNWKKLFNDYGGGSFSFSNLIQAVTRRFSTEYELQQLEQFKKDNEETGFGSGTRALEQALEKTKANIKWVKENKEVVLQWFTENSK
T1 sequence (P08473 52-750 limits assumed): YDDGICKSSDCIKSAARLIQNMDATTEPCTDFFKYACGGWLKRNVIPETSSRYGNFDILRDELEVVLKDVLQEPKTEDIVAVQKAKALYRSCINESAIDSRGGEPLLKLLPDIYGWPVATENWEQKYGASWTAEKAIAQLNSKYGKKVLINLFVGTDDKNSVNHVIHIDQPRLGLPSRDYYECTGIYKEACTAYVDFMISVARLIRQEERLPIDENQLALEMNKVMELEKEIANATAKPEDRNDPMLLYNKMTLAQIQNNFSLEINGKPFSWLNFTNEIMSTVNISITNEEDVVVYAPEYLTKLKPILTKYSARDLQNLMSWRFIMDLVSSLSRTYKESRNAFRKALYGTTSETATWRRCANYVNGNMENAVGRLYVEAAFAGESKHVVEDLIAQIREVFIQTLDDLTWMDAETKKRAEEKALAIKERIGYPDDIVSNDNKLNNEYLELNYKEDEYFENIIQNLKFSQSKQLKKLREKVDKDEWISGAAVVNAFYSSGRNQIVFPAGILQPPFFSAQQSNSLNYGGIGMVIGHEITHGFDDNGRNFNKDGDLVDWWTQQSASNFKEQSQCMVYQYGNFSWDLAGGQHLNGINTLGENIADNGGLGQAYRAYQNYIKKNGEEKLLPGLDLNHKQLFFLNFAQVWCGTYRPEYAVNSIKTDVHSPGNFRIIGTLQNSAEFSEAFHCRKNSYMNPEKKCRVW
T3 sequence (P08473 52-750 limits assumed): as above

| inhibitory potency towards hAP-N compared to Opiorphin-QRFSR native peptide (in words) (recombinant human AP-N) | inhibitory preference for human AP-N (in words) (recombinant human AP-N) | inhibitory potency towards hNEP compared to Opiorphin-QRFSR native peptide (in words) (human NEP) | inhibitory potency towards human NEP (in words) (human NEP) | Compound | other results |
| --- | --- | --- | --- | --- | --- |
| – | – | – | – | N=C(N)NCCC[C@H](NC(=O)[C@H](CO)NC(=O)[C@H](Cc1ccccc1)NC(=O)[C@H](CCCNC(=N)N)NC(=O)[C@H](CCC(N)=O)NC(=O)[C@@H](N)CSSC[C@H](N)C(=O)N[C@@H](CCC(N)=O)C(=O)N[C@@H](CCCNC(=N)N)C(=O)N[C@@H](Cc1ccccc1)C(=O)N[C@@H](CO)C(=O)N[C@@H](CCCNC(=N)N)C(=O)O)C(=O)O [[CQRFSR]2] | increase inhibitory potency towards hNEP-Endo and CarboxyDi-peptidase activities compared to CQRFSR monomer peptide (human NEP; increase vs CQRFSR monomer): at least 2 fold |
| equivalent inhibitory potency | inhibitory preference for human AP-N | weak inhibitory potency | weak inhibitory potency | QHNPR [NH2-QHNPR-COOH] | – |
| equivalent inhibitory potency | inhibitory preference for human AP-N | weak inhibitory potency | weak inhibitory potency | QRGPR [NH2-QRGPR-COOH] | – |
| – | – | – | potent dual inhibitors | N=C(N)NCCC[C@H](NC(=O)[C@H](CO)NC(=O)[C@H](Cc1ccccc1)NC(=O)[C@H](CCCNC(=N)N)NC(=O)[C@H](CCC(N)=O)NC(=O)[C@@H](N)CS)C(=O)O [CQRFSR-COOH, CQRFSR] | reinforced inhibitory potency towards hNEP compared to QRFSR native peptide (human NEP; increase vs QRFSR native peptide): 5 fold |
| – | – | light reduction in inhibitory potency | – | QKFSR | – |
| equivalent inhibitory potency | inhibitory preference for human AP-N | weak inhibitory potency | weak inhibitory potency | QRFPR | – |
| – | – | equivalent inhibitory potency | – | QRFSK | – |
| – | – | – | potent dual inhibitors | N=C(N)NCCC[C@H](NC(=O)[C@H](CO)NC(=O)[C@H](Cc1ccccc1)NC(=O)[C@H](CCCNC(=N)N)NC(=O)[C@H](CCC(N)=O)NC(=O)CCCCCCCCCCCCNC(=O)[C@@H](N)Cc1ccc(O)cc1)C(=O)O [Y(PE12)QRFSR-COOH, Y—(—HN—(CH2)12—CO-)-QRFSR] | inhibitory preference for human NEP endopeptidase activity (in words) [1]: inhibitory preference for human NEP endopeptidase activity; inhibitory potency towards human AP-N (in words) (recombinant human AP-N): potent dual inhibitors |
| – | – | – | – | CCCCCCCC(=O)OC[C@H](NC(=O)[C@H](Cc1ccccc1)NC(=O)[C@H](CCCNC(=N)N)NC(=O)[C@H](CCC(N)=O)NC(=O)CCCCCCNC(=O)[C@@H](N)CS)C(=O)N[C@@H](CCCNC(=N)N)C(=O)O [C[PE6]QRF[S—O-Octanoyl]R, C—(—HN—(CH2)6—CO-)-QRF—S(O-octanoyl)-R] | increase inhibitory potency compared to Opiorphin native peptide, Substance P test [2]: at least 5 fold |

| Compound | inhibitory potency towards hAP-N compared to Opiorphin-QRFSR native peptide (in words) (recombinant human AP-N) | inhibitory preference for human AP-N (in words) (recombinant human AP-N) | inhibitory potency towards hNEP compared to Opiorphin-QRFSR native peptide (in words) (human NEP) | inhibitory potency towards human NEP (in words) (human NEP) | other results |
| --- | --- | --- | --- | --- | --- |
| dR-dS-dF-dR-dQ ([dR][dS][dF][dR][dQ]) [NH2-dRdSdFdRdQ-COOH] | – | preference for AP-N activity | – | did not display significant inhibitory activity | inhibitory potency towards human AP-N (in words) (recombinant human AP-N): did not display significant inhibitory activity |

— patent US8889827B2, “Opiorphin peptide derivatives as potent inhibitors of enkephalin-degrading ectopeptidases” (Institut Pasteur, priority 2008, dated 2014)
